{"source": "patent US20210155687A1", "about": "(published 2021)", "binders": {"B1": {"name": "mab 1 (antibody)", "heavy": "SYAMS", "light": "EVQLVESGGGLVQPGGSLRLSCAASGFTFSSYAMSWVRQAPGKGLEWVATISDGGSFTYYLDNVRGRFTISRDNAKNSLYLQMNSLRAEDTAVYYCARDVGHTTFWYFDVWGRGTLVTVSS", "notes": "Humanised anti-OSM antibody derived from murine 10G8; also called humanised mab 1 derived from 10G8; Mature H0 (IGHV3_23 CDRH1) heavy chain with Mature L1 light chain"}}, "key": {"[1]": {"target": "T1, Human OSM (human)", "T1 chain": "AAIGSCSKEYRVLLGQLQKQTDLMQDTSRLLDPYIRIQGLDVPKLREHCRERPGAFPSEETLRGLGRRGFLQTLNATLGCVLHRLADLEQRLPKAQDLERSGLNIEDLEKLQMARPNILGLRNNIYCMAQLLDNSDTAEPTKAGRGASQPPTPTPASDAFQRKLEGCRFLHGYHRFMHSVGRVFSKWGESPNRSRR", "test": "in vivo affinity estimated from FTIH PK/PD data (rounded restatement of the TMDD estimate)"}, "[2]": {"target": "T1, Human OSM", "test": "in vivo affinity in serum, estimated with a TMDD model (one-compartment PK plus binding kinetics) from free and total OSM levels in the single ascending dose FTIH study"}}}
{"binder": "B1", "values": [{"measurement": "Kd", "setting": "[1]", "result": "~0.6", "unit": "nM"}, {"measurement": "Kd", "setting": "[2]", "result": 0.568, "unit": "nM"}]}
